Drawing on paper PMC9284731, this text covers binding signal for two substances.

A value given as a limit tells only on which side of the number the result lay.

For data set [1], the system named is RBP10 fragment with only 10 residues C-terminal to the RRM (Trypanosoma brucei). As to the kind of experiment: EMSA. To be noted: binding buffer for gel shifts not in material (only protein buffers: elution 50 mM NaH2PO4, 300 mM NaCl, 250 mM imidazole, pH 8.0); sometimes dialyzed to 10 mM …; scale: affinity relative to P1. In general terms: A gel shift assay detects complexes by their altered migration in electrophoresis.

Data set [2] relates to RBP10 fragment with no residues C-terminal to the RRM (Trypanosoma brucei). As to the kind of experiment: EMSA. To be noted: binding buffer for gel shifts not in material (only protein buffers: elution 50 mM NaH2PO4, 300 mM NaCl, 250 mM imidazole, pH 8.0); sometimes dialyzed to 10 mM …; scale: affinity relative to P1.

With “probe with two copies of UACUCUCU (mutant)”, the binding signal in data set [1] and in data set [2] was less than 0.1 throughout.
On to probe with two copies of UA(U)6, for which the binding signal in data set [1] and in data set [2] was less than 0.1 each time.
